This data set has as its system His51. In words: NMR. Particulars: 298 K; 100 mM NaCl, 5 mM CaCl2; 20 mM deuterated MES (pH 5.5, 6.0, 6.5, 7.2, 8.5) or 20 mM deuterated Tris (pH 8.5), 0.02% NaN3; Inhibitor-bound (Bz-Nle-Lys-Arg-Arg-B(OH)2, a tetrahedral transition-state mimic), NS2B-bound, folded. Two complex forms are in equilibrium.

For “NS3 serine protease domain (NS3pro) in complex with NS2B cofactor segment (Dengue virus type 2 (DENV2))”, the pKa result is “remain fully protonated over the investigated pH range (5.5–8.5)”.

For the origin of these results see article PMC6031666.
